The results in this text go back to publication PMC8632296 (mAbs, 2021).

For orientation: EC50 means the concentration giving half of the maximal effect. The low end stands for greater potency, the high end for weaker potency. As usually defined, the Kd is the concentration at which binding is half-saturated. In general, koff refers to the rate constant with which the complex falls apart. Broadly, the kon is a measure of how fast the partners come together.

Test [1] deals with human carbonic anhydrase IX on cells and in tumour tissue (Homo sapiens, UniProt Q16790). In words: plate-based cell binding assay.
The target in test [2] is recombinant human carbonic anhydrase IX extracellular domain, dimer (Homo sapiens, UniProt Q16790). In words: SPR. A general note: In SPR one partner is held on a chip, and binding of the other changes the refractive index at the surface.
Test [3] has as its target recombinant human carbonic anhydrase IX extracellular domain, monomer (human, UniProt Q16790). In words: SPR.

B1: m9B6, recombinant murine anti-hCAIX antibody (mouse IgG2a) (antibody, V domains shown)
VH: QVQLQQPGAELVKPGASVKLSCKASGYIFTTKWINWVKQRPGQGLEWIGNIYPGSSNTYYNEKFKNKATLTVDKSSNTAHLQLSSLTSEDSAVYYCARGIANWGQGTPVTVSA
VL: DIVLTQSPSSLAVSLGQRATISCKASQSVDYDGNSYMNWFQQKPGQPPKLLIYEASSLESGIPARISGSGSGTDFTLNIHPVEEEDAATYYCQQSYEGPYTFGGGTKLEIK
B1 registered an EC50 in test [1] of 21.8 nM.

B2: c12H8, recombinant chimeric anti-hCAIX antibody (human IgG1) (antibody, V domains shown)
VH: QIQLVQSGPELKKPGETVKISCKASGYTFTNYGMNWVQQAPGKGLKWMGWINTYTGEPTYADDFKGRFAFSLETSASTAYLQINNLKNEDMATYFCARGGIATPTSYWGQGTTLTVSS
VL: not shown
Turning to B2, in test [2], the dissociation constant (Kd) is 0.032 nM, the koff was 0.000115 s⁻¹ and the kon worked out at 3.58e+06 M⁻¹ s⁻¹. It took 0.221 nM to reach a half-maximal effect in test [1] (EC50). In test [3], the Kd was 34.5 nM, the koff was 0.0524 s⁻¹ and the kon stood at 1.52e+06 M⁻¹ s⁻¹.

B3: m4A2, recombinant murine anti-hCAIX antibody (mouse IgG2a) (antibody, V domains shown)
VH: EVKLEESGGGLVQPGRSMKLSCVASGFTFSYYWMDWVRQSPEKGLEWVAEIRLKSDNYATHYAESVKGRFTISRDDSKSSVYLQMNNLRAEDTGIYYCTRAPHYYGYFDYWGQGTTLTVSS
VL: QIVLTQSPAVMSAFPGEKVTMTCSASSSVGYMHWYQQKAGSSPRLLIYDTSNLSSGVPARCSGSGSGTSYSLTISRMEAEDAATYYCQQWRSYPPTFGGGTKLEIK
With B3, in test [2], the Kd was 0.189 nM, the koff was 7.68e-05 s⁻¹ and the on-rate (kon) came to 406000 M⁻¹ s⁻¹. This molecule had an EC50 in test [1] of 1.16 nM. Moreover, in test [3], the Kd came out at 0.826 nM, the koff turned out to be 0.00019 s⁻¹ and the association rate constant (kon) was 229000 M⁻¹ s⁻¹.
